# Experimental data reported in publication PMC4983199 (Cell, 2016).
# Substitutions are numbered along the chain they refer to.
# B1: ZV-48 mouse monoclonal antibody (antibody, V domains shown)
# VH: QVQLQQPGAELLKPGASVKLSCKASGYSFSNYWMHWVKQRPGQGPEWIGMIHPNSGNTKYNEKFKNKATLTVDKSSSMVYMQLSSLTSEDSAVFYCARLGNDMDYWGQGTSVTVSS
# VL: DIVMSQSPSSLAVSVGEKITMSCKSSQSLLYSNNEKNYLAWYQQKPGQSPKLLIYWASARDSGVPDRFTGSGSGTDFTLTISSVKAEDLAVFYCQQYYSYPYTFGGGTKLEIK
# B2: ZV-54 mouse monoclonal antibody (antibody, V domains shown)
# VH: QVQLQQSGVGLARPGTSVKLSCKASGYSFTTYGISWVTQRPGQGLEWIGVIYPRSNNTYYNERFRGKATLTADKSSSSAYLELRGLTAEDSAVYFCARENYGSVYWGQGTTLTVSS
# VL: DIVMTQSQKFMSTSVGDRVTITCKASQSVGTAVAWYHQKPGQSPKLLIYSASNRYTGVPDRFTGSGSGTDFTLTITYMQSEDLADYFCQQFSNYPFTFGGGTKLEIK
# B3: ZV-67 mouse monoclonal antibody (antibody, V domains shown)
# VH: B2 VH with V2A, V9T, T16A, S28T, T31S, P41A, N56G, R63K, L81M
# VL: B2 VL with T20S, S28N, H37Q, T76S, Y77N, N93S, F96Y
# B4: ZV-2 mouse monoclonal antibody (antibody, V domains shown)
# VH: QVQLQESGAELMKPGASVKLSCKTSGYTFIGYWIEWLKQRPGHGLEWVGEIFPGSGRTKYNEKFKGRATFTADTSSNMAYMQLSSLTTEDSAIYYCARYYYGSYYALDYWGQGTSVTVSS
# VL: DIVMTQSPSSLSVSAGEKVTLSCKSSQSLLHSGNQKNYLAWYQQKPGQAPKLLIYGASTRESGVPDRFTGSGSGTDFTLTISSVQAEDLAVYYCQNDHSYPLTFGAGTKLELK
# Assays:
# [1] = target: ZIKV E protein (recombinant, ectodomain, strain H/PF/2013) (Zika virus H/PF/2013, UniProt A0A024B7W1); assay: ELISA
# [2] = target: T1, ZIKV E protein domain III (DIII), strain H/PF/2013 (Zika virus H/PF/2013); assay: cell-based or functional assay
# T1 chain: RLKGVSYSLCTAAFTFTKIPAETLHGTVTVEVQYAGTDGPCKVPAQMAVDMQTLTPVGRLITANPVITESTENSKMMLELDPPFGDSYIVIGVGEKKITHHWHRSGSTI
# [3] = target: T1, ZIKV E protein domain III (DIII), …; assay: BLI
# [4] = target: ZIKV subviral particles (SVPs, prM-E), strain H/PF/2013 (Zika virus H/PF/2013, UniProt A0A024B7W1); assay: ELISA
# ZIKV E protein (recombinant, ectodomain, strain H/PF/2013), sequence (A0A024B7W1 whole entry, looked up, the tested form may be a part): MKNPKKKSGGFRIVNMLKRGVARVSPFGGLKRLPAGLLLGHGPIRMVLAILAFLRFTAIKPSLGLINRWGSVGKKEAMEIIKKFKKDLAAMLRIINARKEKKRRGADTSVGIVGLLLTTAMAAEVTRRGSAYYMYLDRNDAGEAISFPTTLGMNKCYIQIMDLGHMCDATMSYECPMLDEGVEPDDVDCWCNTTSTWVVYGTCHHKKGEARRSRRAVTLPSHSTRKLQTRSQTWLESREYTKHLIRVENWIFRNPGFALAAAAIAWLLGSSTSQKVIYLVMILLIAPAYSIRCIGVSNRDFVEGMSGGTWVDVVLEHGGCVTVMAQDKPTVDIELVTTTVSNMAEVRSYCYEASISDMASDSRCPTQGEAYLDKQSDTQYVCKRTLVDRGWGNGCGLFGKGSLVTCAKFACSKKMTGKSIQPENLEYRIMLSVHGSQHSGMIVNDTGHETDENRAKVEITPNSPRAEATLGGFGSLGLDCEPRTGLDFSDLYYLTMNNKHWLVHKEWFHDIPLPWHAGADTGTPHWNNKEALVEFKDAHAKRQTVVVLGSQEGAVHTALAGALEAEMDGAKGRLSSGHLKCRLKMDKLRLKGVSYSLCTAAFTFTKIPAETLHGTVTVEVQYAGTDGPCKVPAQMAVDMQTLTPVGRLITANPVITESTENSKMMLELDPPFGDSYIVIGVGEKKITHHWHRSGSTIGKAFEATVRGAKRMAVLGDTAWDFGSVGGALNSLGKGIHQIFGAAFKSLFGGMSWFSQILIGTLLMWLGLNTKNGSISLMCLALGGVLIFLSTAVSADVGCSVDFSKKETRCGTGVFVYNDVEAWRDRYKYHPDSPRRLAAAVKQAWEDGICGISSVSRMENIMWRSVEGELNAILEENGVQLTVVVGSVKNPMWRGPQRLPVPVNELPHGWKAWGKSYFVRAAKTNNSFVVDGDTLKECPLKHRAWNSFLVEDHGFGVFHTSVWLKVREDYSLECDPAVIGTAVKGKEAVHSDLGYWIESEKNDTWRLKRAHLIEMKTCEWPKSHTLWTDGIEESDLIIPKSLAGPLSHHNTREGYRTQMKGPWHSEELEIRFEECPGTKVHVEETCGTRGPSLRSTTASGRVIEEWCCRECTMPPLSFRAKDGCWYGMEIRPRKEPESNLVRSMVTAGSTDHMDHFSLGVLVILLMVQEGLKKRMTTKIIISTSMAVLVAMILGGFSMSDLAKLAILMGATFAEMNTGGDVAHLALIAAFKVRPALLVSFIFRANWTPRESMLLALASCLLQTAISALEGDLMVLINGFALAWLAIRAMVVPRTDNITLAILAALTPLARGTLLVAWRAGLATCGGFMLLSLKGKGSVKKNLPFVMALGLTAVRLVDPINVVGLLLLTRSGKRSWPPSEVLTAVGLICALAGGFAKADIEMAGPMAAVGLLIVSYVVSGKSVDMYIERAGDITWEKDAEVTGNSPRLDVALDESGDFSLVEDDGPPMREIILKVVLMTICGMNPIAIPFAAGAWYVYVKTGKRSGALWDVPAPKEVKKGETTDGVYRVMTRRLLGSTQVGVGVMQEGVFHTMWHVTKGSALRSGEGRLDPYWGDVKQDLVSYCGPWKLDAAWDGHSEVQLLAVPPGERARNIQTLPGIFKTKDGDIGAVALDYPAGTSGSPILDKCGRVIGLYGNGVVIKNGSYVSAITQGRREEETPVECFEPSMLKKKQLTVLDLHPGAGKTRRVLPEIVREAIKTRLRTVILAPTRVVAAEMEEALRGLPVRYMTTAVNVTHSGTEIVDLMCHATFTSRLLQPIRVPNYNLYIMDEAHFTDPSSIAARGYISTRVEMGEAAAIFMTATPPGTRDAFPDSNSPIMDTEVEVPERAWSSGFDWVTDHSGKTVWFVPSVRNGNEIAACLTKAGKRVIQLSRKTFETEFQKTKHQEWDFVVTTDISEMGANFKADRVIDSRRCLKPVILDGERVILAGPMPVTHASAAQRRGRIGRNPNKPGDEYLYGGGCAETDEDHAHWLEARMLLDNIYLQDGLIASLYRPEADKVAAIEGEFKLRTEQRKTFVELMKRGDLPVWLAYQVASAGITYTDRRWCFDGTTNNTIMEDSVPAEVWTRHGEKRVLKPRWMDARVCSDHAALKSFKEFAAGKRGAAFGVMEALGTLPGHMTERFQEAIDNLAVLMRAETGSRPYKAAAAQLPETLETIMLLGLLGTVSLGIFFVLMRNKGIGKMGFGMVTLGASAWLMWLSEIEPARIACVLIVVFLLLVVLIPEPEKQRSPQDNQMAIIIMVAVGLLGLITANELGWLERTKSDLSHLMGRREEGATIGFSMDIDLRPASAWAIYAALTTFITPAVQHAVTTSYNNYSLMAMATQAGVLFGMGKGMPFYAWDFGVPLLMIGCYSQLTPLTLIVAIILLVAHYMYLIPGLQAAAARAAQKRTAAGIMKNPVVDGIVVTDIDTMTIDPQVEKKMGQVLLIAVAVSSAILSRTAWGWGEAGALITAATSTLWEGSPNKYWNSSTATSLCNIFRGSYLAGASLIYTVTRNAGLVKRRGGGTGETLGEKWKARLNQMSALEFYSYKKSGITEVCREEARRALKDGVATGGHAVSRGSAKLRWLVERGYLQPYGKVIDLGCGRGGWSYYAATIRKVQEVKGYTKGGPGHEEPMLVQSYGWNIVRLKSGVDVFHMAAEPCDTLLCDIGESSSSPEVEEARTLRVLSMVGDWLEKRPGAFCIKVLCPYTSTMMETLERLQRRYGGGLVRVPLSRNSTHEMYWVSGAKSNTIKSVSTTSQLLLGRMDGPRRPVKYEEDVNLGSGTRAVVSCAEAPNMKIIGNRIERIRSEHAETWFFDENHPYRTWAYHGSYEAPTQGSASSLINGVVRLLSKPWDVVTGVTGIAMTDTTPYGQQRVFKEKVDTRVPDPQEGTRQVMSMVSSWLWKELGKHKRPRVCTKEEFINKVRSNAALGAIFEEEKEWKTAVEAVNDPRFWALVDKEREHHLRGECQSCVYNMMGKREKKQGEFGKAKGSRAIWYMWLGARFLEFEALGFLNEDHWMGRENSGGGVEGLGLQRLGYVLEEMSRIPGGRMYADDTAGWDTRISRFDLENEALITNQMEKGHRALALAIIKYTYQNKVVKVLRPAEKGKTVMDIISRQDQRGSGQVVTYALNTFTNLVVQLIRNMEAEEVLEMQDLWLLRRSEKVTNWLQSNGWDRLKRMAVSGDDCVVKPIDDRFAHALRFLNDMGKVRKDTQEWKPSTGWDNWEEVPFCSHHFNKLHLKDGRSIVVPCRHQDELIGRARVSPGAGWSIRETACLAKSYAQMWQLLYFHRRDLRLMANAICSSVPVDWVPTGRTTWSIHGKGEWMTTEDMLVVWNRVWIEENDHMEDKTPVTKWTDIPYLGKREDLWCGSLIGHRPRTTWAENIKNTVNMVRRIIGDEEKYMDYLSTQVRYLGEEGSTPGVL
Binder,binding result [1],"FRNT50, focus reduction neutralization of ZIKV H/PF/2013 on Vero cells [2]",Kd [3],t1/2 [3],binding result [4]
B1,binds,485 ng/mL,35 ± 0.8 nM,3.2 min,–
B2,binds,87 ng/mL,7.9 ± 0.2 nM,33 min,binds
B3,–,143 ng/mL,8.8 ± 1.7 nM,13.8 min,–
B4,–,–,266 ± 42 nM,0.3 min,–
